Measurements from article PMC12363175.

Target: CX1 S ectodomain with stabilizing mutations
Assay: AUC

Chain of peptidase domain (PD) of hACE2 (Q9BYF1 19-615): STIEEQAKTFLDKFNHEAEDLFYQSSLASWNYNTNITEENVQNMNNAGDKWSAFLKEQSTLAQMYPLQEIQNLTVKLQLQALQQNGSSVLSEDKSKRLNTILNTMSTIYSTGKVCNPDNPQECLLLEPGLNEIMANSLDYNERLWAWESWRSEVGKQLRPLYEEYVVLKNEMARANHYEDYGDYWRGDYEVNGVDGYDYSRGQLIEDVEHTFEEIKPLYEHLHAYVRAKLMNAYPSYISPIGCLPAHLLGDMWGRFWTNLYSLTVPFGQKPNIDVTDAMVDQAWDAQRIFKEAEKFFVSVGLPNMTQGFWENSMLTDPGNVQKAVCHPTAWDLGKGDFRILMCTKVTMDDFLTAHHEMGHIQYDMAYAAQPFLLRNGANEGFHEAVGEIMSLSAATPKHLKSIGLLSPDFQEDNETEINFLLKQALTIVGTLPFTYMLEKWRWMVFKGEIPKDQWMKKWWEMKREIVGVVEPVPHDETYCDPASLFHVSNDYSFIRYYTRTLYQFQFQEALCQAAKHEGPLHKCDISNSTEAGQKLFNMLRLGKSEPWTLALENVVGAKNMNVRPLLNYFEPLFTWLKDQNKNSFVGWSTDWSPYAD

peptidase domain (PD) of hACE2 (from UniProt Q9BYF1 19-615) (domain or fragment)
stoichiometry N (hACE2 molecules per S trimer): 2
